Measured values published in patent US20170029841A1, “METHODS AND COMPOSITIONS FOR SELECTIVE REGULATION OF PROTEIN EXPRESSION” (priority 2015, published 2017).
Like-named read-outs stand apart in the source and are kept apart here.

B1: SEQ ID NO: 1: mts-siRNA target element, 95% identity to nucleotide positions 1429 to 1628 of cDNA SEQ ID NO: 17 (nucleic acid)
DNA: AGACGACGACCGTGCATGGTGATGAATCACAGACGACGAACACGCATGTCGCATCGCCGTCCTCTTTGTATCACACAGCATCACCTTCTTCGCTCTACTACTCCCCCGAGCAATCACCGACCAATAACACCAACCATCAACCTCCCCCGTCGCCGCCGCCTTCACCGTCCTCCCCTCACACCATAGAACTGCAAATGTCCG
B2: SEQ ID NO: 7: mts-siRNA target element, nucleotide positions 1357 to 1562 of cDNA SEQ ID NO: 20 (nucleic acid)
DNA: GGAACCGGTGACCAGCTGCACGACGATGAATCCTACAAGACGACCATGTAATACACAGTGTCGTCCTCTTCGTTCTACTACTCAACAGAGCAGTCGCCGACCAATAACGAATGGAGTATTATCTCTGTCCTTCACCTTACACCATATTCACACCATAGAACTGCAAATGTCCGAGGTACCAACTAACATCGGTACCTTTGGCATGA
modifications: Zea mays
B3: SEQ ID NO: 4: mts-siRNA target element, nucleotide positions 477 to 697 of cDNA SEQ ID NO: 18 (nucleic acid)
DNA: ACGAGGGAATGTCATTGGTCGATGAGTTGGAGGCGTCAAATGCAGATAAAGCTACAACTTCCATGTGGAGGATGACTGCGACGTTGTGGCAGACTCATCCACTACAGTGAGAGTCTAGGAAAGCATGAAGCCGATTGTGGACATCGATGTCGGTGTCAAGGACTTATAGATGTCATGTTGGGAGAGCAACCATGGCACGATAGTTAAGGCGCAAGGGTATC
modifications: Zea mays
B4: SEQ ID NO: 5: mts-siRNA target element, nucleotide positions 239 to 433 of cDNA SEQ ID NO: 19 (nucleic acid)
DNA: TGGCTGCTTCTGTTGGCGTGAAAGCTCGAGTGCTCCTAAATGGTCGTCGTATTAGCTGATACGACATCTACCCGATGCAATAGATAATATTGTTTACACGCGTGAGTC
modifications: chemistry not fully specified; the letters are possibly those of the target site
B5: SEQ ID NO: 6: mts-siRNA target element, nucleotide positions 370 to 477 of cDNA SEQ ID NO: 19 (nucleic acid)
DNA: TCGCCGAGAAGGGAGTAGTAGTATTACCTGATATCTATGCTAATTCAGGTGGTGTGGTCGTTAGCTACTTTAATTGAGTGGGTTCAGAACATTCAAGGTTTCATGTGG
modifications: chemistry not fully specified; the letters are possibly those of the target site
B6: SEQ ID NO: 8: mts-siRNA target element, nucleotide positions 247 to 441 of cDNA SEQ ID NO: 21 (nucleic acid)
DNA: AGATTGGTCATACACTAGATAGGGCTAGATCACTCGGGTCGCCACAAGTTGAAGAATGCAAAGAGTGTCCACATGATTTCATGGTGATGAACAGTGATTTTATGAGCAAACTAGCAAAGGATAATCAGTTGCATATATGTGATGAAGACCGATCAGTTTCCGAGCAAAGTAGCAAATGAGTCATCGAAGCTGTCA
modifications: Zea mays
B7: SEQ ID NO: 10: recombinant mts-siRNA target element sequence (nucleic acid)
DNA: AGACGACGACCGTGCATGGTGATGAATCACAGACGACGAACACGCATGTCGCATCGCCGTCCTCTCACACCATAGAACTGCAAATGTCCG
modifications: expressed or natural sequence; target site or template, no part of the molecule
B8: SEQ ID NO: 11: recombinant mts-siRNA target element sequence (nucleic acid)
DNA: AGACGACGACCGTGCATGGTGATGAATCACAGACGACGAACACGCATGTCGCATCGCCGTCCTCTCACACCATAGAACTGCAAATGTCCGACAACAAGCACCTTCTTGCCTTGCAGTATTGGTGGTGACGACATCCTTGGTGTGCATGCACTGGTGAGTCACTGT

Legend:
[1] = test system: transgenic maize R0 plants (double copy events); test: R0 plant greenhouse glyphosate spray: vegetative tolerance and induced male sterility; assay type: in vivo; details: for % Vegetative Tolerance / % Vegetative Tolerant: glyphosate 0.75 lb ae/acre at V5 then V8; for % Vegetative Tolerant: <=10% injury 7 days after V5 spray
Procedure: Transformation vectors containing the recombinant DNA constructs were used with an Agrobacterium-based transformation method and maize immature embryos and techniques known in the art. Leaf samples of R0 plants were collected and molecular analysis was conducted to select transgenic plants containing a single copy (one insertion) or a double copy (two independent insertions) of the recombinant DNA construct and no presence of vector backbone. Single copy events were not sprayed with glyphosate and were selfed and advanced for R1 seed collection, while double copy events were used for R0 glyphosate spray to assess vegetative tolerance and induced male sterility. Transgenic plants that were not sprayed with glyphosate had normal anthesis, normal pollen shedding, and normal pollen development as determined by Alexandar staining and microscopic observation.
Double copy R0 events were used in testing to approximate a single copy homozygous event. Plants were sprayed with glyphosate at two different growth stages to determine if the presence of the mts-siRNA target element in the recombinant DNA construct provided vegetative glyphosate tolerance and glyphosate-induced tassel sterility. The plants were sprayed in a greenhouse with 1× glyphosate (0.75 lb ae/acre) applied at the V5 stage followed by 1× glyphosate (0.75 lb ae/acre) applied at the V8 stage. Seven days after the V5 stage glyphosate application, plants were scored for vegetative injury with scores of ≦10% injury considered as showing vegetative glyphosate tolerance (% Vegetative Tolerant). Male sterility was measured in two ways. […] Anthers were then collected and dissected to microscopically observe pollen development. Anthers for each event were tested for no viable pollen grains produced as detected by Alexandar staining under microscopic observation and scored as not producing any viable pollen (% No Pollen). In plants not sprayed with glyphosate, tassel development, anther extrusion, and pollen development were normal.
The mts-siRNA target elements were tested in multiple transformation vector configurations. Each transformation vector was used to produce multiple R0 plants with each R0 plant representing a unique transgenic event made using the same transformation vector. Data for three different transformation vector configurations are provided as Tables 11 and 12.

transgenic maize plants = details: for AES90+8 (LSD = 10): average anther extrusion at S90+8, same glyphosate regimen; for Seed Yield bu/acre (LSD = 24.7): end of season; for CIPVT (LSD = 8.1): glyphosate 1.5 lbs ae/acre at V2, 0.75 at V8, 0.75 at V10, range over events; for Avg. plant height (inches) (LSD = 6.9): in vivo
[2] = vector configuration A, no viable pollen by Alexandar staining
[3] = vector configuration A, no anther extrusion up to S90+12 after V8 glyphosate

| Molecule | % Completely Male-sterile ([1]; vector configuration B) [%] | % No Pollen ([1]; vector configuration B) [%] | % Vegetative Tolerance ([1]; vector configuration B) [%] | % Completely Male-sterile ([1]; vector configuration C) [%] | % No Pollen ([1]; vector configuration C) [%] | % Vegetative Tolerance ([1]; vector configuration C) [%] | Seed Yield bu/acre (LSD = 24.7) (transgenic maize plants) | CIPVT (LSD = 8.1) (transgenic maize plants) | Avg. plant height (inches) (LSD = 6.9) (transgenic maize plants) | % No Pollen [1, 2] [%] | other results |
| --- | --- | --- | --- | --- | --- | --- | --- | --- | --- | --- | --- |
| B1 | 100 | 100 | 67 | 100 | 60 | 38 | no significant decrease | No significant difference | No significant difference | – | AES90+8 (LSD = 10) (transgenic maize plants): 0-2.75%; AES90+8 (LSD = 10) (transgenic maize plants; listed as 1): 0-2.75%; Seed Yield bu/acre (LSD = 24.7) (transgenic maize plants; listed as 1): 97-99 bu/acre; CIPVT (LSD = 8.1) (transgenic maize plants; listed as 1): 2.5-6.25%; Avg. plant height (inches) (LSD = 6.9) (transgenic maize plants; listed as 1): 84.75 inches |
| B2 | – | – | – | – | – | – | no significant decrease | No significant difference | No significant difference | 44 | % Vegetative Tolerant ([1]; vector configuration A, listed as 7): 88%; % Completely Male-sterile ([1]; vector configuration A, no anther extrusion up to S90+12 after V8 glyphosate, listed as 7): 100%; AES90+8 (LSD = 10) (transgenic maize plants): 0-1.5%; AES90+8 (LSD = 10) (transgenic maize plants; listed as 7): 0-1.5%; Seed Yield bu/acre (LSD = 24.7) (transgenic maize plants; listed as 7): 100-110 bu/acre; CIPVT (LSD = 8.1) (transgenic maize plants; listed as 7): 3.75-5%; Avg. plant height (inches) (LSD = 6.9) (transgenic maize plants; listed as 7): 79.8 inches |
| B3 | – | – | – | – | – | – | 70-80 bu/acre | No significant difference | – | 0 | % Vegetative Tolerant ([1]; vector configuration A): 86%; % Completely Male-sterile [1, 3]: 7%; AES90+8 (LSD = 10) (transgenic maize plants; listed as 4): 16.25-18.75%; CIPVT (LSD = 8.1) (transgenic maize plants; listed as 4): 1.25-3.75% |
| B4 | – | – | – | – | – | – | – | No significant difference | – | 0 | % Vegetative Tolerant ([1]; vector configuration A, listed as 5): 90%; % Completely Male-sterile ([1]; vector configuration A, no anther extrusion up to S90+12 after V8 glyphosate, listed as 5): 50%; AES90+8 (LSD = 10) (transgenic maize plants; listed as 5): 10%-20%; CIPVT (LSD = 8.1) (transgenic maize plants; listed as 5): 5% |
| B5 | – | – | – | – | – | – | – | No significant difference | – | 0 | % Vegetative Tolerant ([1]; vector configuration A): 90%; % Completely Male-sterile [1, 3]: 82%; AES90+8 (LSD = 10) (transgenic maize plants; listed as 6): 25%; CIPVT (LSD = 8.1) (transgenic maize plants; listed as 6): 3.75% |
| B6 | – | – | – | – | – | – | 80-90 bu/acre | No significant difference | No significant difference | 50 | % Vegetative Tolerant ([1]; vector configuration A, listed as 8): 90%; % Completely Male-sterile ([1]; vector configuration A, no anther extrusion up to S90+12 after V8 glyphosate, listed as 8): 100%; AES90+8 (LSD = 10) (transgenic maize plants; listed as 8): 15.75-17.85%; CIPVT (LSD = 8.1) (transgenic maize plants; listed as 8): 2.5-2.7%; Avg. plant height (inches) (LSD = 6.9) (transgenic maize plants; listed as 8): 80.1 inches |
| B7 | 55 | 22 | 90 | 100 | 0 | 83 | – | – | – | – | – |
| B8 | 50 | 0 | 100 | 80 | 0 | 55 | – | – | – | – | – |
